B1: deoxyhypusine synthase, wild type, His-tagged (enzyme)
chain: MEGSLEREAPAGALAAVLKHSSTLPPESTQVRGYDFNRGVNYRALLEAFGTTGFQATNFGRAVQQVNAMIEKKLEPLSQDEDQHADLTQSRRPLTSCTIFLGYTSNLISSGIRETIRYLVQHNMVDVLVTTAGGVEEDLIKCLAPTYLGEFSLRGKELRENGINRIGNLLVPNENYCKFEDWLMPILDQMVMEQNTEGVKWTPSKMIARLGKEINNPESVYYWAQKNHIPVFSPALTDGSLGDMIFFHSYKNPGLVLDIVEDLRLINTQAIFAKCTGMIILGGGVVKHHIANANLMRNGADYAVYINTAQEFDGSDSGARPDEAVSWGKIRVDAQPVKVYADASLVFPLLVAETFAQKMDAFMHEKNED
B2: eukaryotic translation factor 5A-1 (eIF5A-1), residues 15-151 (domain or fragment)
chain: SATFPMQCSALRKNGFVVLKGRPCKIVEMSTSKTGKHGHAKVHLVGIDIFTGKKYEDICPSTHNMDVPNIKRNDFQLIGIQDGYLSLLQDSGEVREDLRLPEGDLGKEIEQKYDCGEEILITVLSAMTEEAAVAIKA

What was measured:
[1] = biological target: B2; assay: MST; + NAD + SPD
[2] = biological target: B2; assay: MST; + NAD
[3] = biological target: T1, deoxyhypusine synthase delY305_I306, patient-derived variant, His-tagged (human, UniProt P49366 1-369, delY305_I306); assay: MST; + NAD + SPD
[4] = biological target: deoxyhypusine synthase N173S, patient-derived variant, His-tagged (human, UniProt P49366 1-369, N173S); assay: MST; + NAD + SPD
[5] = biological target: T1, deoxyhypusine synthase delY305_I306, …; assay: MST; + NAD

Binder | Kd [1] | Kd [2] | Kd [3] | Kd [4] | Kd [5]
B1 | 81.7 nM | 27 nM |  |  | 
B2 |  |  | 1580 nM | 426 nM | 368 nM

Source: paper PMC10042821 (2023)
